Literature values in US8765467B2, “Multicellular compositions of pluripotent human embryonic stem cells and cancer cells” (Technion Research and Development Foundation Ltd., priority 2003, dated 2014).

Assays:
tumors = tumors grown in immunocompromised mice; literature (Folkman 2002)
[1] = test system: human B-lineage acute lymphoblastic leukemia (B-ALL); details: human B-ALL engrafted within marrow of immunodeficient mice; literature (Eisterer et al 2002)

B1: Endostatin (protein, UniProt P39060 1572-1754, looked up)
Endostatin: HSHRDFQPVLHLVALNSPLSGGMRGIRGADFQCFQQARAVGLAGTFRAFLSSRLQDLYSIVRRADRAAVPIVNLKDELLFPSWEALFSGSEGPLKPGARIFSFDGKDVLRHPTWPQKSVWHGSDPNGRRLTESYCETWRTEAPSATGQASSLLGGRLLGQSAASCHHAYIVLCIENSFMTASK
modifications: Endostatin
notes: antiangiogenic agent cited from the literature
For B1, the anti-angiogenic activity (tumors) is listed as “potent anti-angiogenic agent” and the inhibitory effect [1] is listed as “did not exhibit any inhibitory effect”.
